As a reminder, the stoichiometry N is a count of units in the complex or per binding partner.

Among the data in publication PMC8199271 are stoichiometry N values, retold here.

The assay concerns the target T1, wild-type MBP–CHIP (C-terminus of HSC70-interacting protein, encoded by STUB1) (human), Q9UNE7.
T1 chain: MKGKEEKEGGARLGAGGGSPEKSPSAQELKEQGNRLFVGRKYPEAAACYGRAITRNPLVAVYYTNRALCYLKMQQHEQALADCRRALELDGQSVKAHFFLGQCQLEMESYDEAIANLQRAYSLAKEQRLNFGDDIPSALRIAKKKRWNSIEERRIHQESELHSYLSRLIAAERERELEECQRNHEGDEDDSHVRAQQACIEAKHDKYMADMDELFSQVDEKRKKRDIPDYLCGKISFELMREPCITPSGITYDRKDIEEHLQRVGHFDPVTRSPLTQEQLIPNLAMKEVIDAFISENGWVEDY
Description: native gel or EMSA; 5 µg MBP–CHIP in Native Sample Buffer on a 10% gel, 4 °C, 3 h at 140 V, Tris/glycine (25 mM Tris, 192 mM glycine) pH 8.3; Coomassie staining, bands analysed by Fiji (ImageJ); self-association (monomer, dimer, higher-order oligomers). The conditions noted are these: remark: other sources report otherwise. A general note: In EMSA bound probe runs differently from free probe, usually more slowly.

B1: wild-type MBP–CHIP (C-terminus of HSC70-interacting protein, encoded by STUB1), Q9UNE7-1 1-303 (natural protein)
chain: T1 chain
Take B1: the stoichiometry N is 2.
